Source: paper PMC4431670 (Structure(London, England:1993), 2015)

T1: C-terminal domain of Not1 (Not1C), residues 1541-2093 (S. cerevisiae, UniProt P25655 1541-2093)
T1 sequence (looked up): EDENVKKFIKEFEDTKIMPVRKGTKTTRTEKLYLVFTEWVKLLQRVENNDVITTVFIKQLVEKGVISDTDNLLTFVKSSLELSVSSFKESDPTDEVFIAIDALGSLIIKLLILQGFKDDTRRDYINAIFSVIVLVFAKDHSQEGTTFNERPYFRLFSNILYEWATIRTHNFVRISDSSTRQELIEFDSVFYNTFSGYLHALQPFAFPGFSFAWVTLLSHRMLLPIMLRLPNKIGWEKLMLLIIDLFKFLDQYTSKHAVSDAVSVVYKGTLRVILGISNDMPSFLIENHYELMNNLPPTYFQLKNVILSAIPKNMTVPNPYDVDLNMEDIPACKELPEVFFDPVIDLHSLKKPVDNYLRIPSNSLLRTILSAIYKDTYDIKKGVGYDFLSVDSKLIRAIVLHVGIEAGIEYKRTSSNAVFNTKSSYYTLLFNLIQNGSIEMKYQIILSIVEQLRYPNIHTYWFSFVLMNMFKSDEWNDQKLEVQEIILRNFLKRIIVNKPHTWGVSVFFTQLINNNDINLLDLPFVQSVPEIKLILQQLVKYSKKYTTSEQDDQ


What was measured:
[1] = biological target: T1, C-terminal domain of Not1 (Not1C), …; assay: pull-down
[2] = biological target: T1, C-terminal domain of Not1 (Not1C), …; assay: crystal structure

binding result [1] | binding result [2] | Binder
binds | – | GST-tagged Not4C (domain or fragment, S. cerevisiae, UniProt P34909 418-477, looked up) DPYDALGNAVDFLDARLHSLSNYQKRPISIKSNIIDEETYKKYPSLFSWDKIEASKKSDN
– | binds | Not4C, residues 418-477 of Not4 (domain or fragment, S. cerevisiae, UniProt P34909 418-477, looked up) DPYDALGNAVDFLDARLHSLSNYQKRPISIKSNIIDEETYKKYPSLFSWDKIEASKKSDN
